From article PMC3378762

Experiments:
Lys315 = Lys315 (UniProt position 315, FGTNNKIFLEF); assay: kinetics; conditions: Oxidative half-reaction, N1-acetylspermine as amine substrate; cited from earlier work
CC(=O)NCCCNCCCCNCCCN = assay: steady-state oxygen consumption, oxygen electrode; assay type: biochemical, Saccharomyces cerevisiae; conditions: pH 9.0, 25 °C, 1.3 mM oxygen, 10% glycerol
NCCCNCCCCNCCCN = assay: steady-state oxygen consumption, oxygen electrode; assay type: biochemical, Saccharomyces cerevisiae; conditions: pH 9.35, 25 °C, 1.3 mM oxygen, 10% glycerol, pH 9.35

Substance | pKa (Lys315) | Km (CC(=O)NCCCNCCCCNCCCN) [µM] | kcat (CC(=O)NCCCNCCCCNCCCN) [s⁻¹] | kcat/Km (CC(=O)NCCCNCCCCNCCCN) [M⁻¹ s⁻¹] | Km (NCCCNCCCCNCCCN) [µM] | kcat (NCCCNCCCCNCCCN) [s⁻¹] | Km (CC(=O)NCCCNCCCCNCCCN; pH 9.0) [µM] | kcat (CC(=O)NCCCNCCCCNCCCN; pH 9.0) [s⁻¹] | kcat/Km (CC(=O)NCCCNCCCCNCCCN; pH 9.0) [M⁻¹ s⁻¹] | kcat/Km (NCCCNCCCCNCCCN) [M⁻¹ s⁻¹]
N1-acetylpolyamine oxidase (mouse PAO) (Mus musculus) | 7.0 |  |  |  |  |  |  |  |  | 
Fms1 (Saccharomyces cerevisiae S288C; H67N) |  | 18.6 ± 4.0 | 1.35 ± 0.04 | 72500 ± 15000 |  |  |  |  |  | 
Fms1 (Saccharomyces cerevisiae S288C; H67Q) |  |  |  |  | 165 ± 25 | 0.88 ± 0.01 | 47 ± 6 | 3.9 ± 0.1 | 83000 ± 11000 | 
Fms1 (Saccharomyces cerevisiae S288C; H67A) |  |  |  |  | 1740 ± 310 | 0.44 ± 0.03 | 50 ± 13 | 2.7 ± 0.1 | 54000 ± 14000 | 250 ± 50
